Assay results from the Human Domainome abundance scans (Beltran et al. 2025).
± gives the uncertainty stated by the source.

B1: POU domain, class 2, transcription factor 2, residues 200 to 269; numbered along this chain, P09086 (parent)
chain: LEELEQFARTFKQRRIKLGFTQGDVGLAMGKLYGNDFSQTTISRFEALNLSFKNMCKLKPLLEKWLNDAE

Variants of: B1
Test: abundance fitness (aPCA) (normalised: wild type 0, dead -1); higher = more abundant; growth selection in yeast, the domain comes from the species named
Settings: Homo sapiens

Row | Variant | abundance fitness
1 | LEELEQFARTFKQRRIKCGFTQGDVGLAMGKLYGNDFSQTTISRFEALNLSFKNMCKLKPLLEKWLNDAE [L18C] | -0.213 ± 0.072
2 | LEELEQFARTFKQRRIKLGFTQGDVGLAMGKLYGNDFSQTTISRFEALNLSFENMCKLKPLLEKWLNDAE [K53E] | 0.003 ± 0.05
3 | LEELEQFARTFKQRRIKLGFTQGDVGLAMGKLYGNDFSQTTISRFEALNLSFNNMCKLKPLLEKWLNDAE [K53N] | -0.236 ± 0.12
4 | LEELEQFARTFKQRRIKLGFTQGDVGLAMGKLYGNDFSQTTISRFEALNLSFCNMCKLKPLLEKWLNDAE [K53C] | -0.098 ± 0.069
5 | LEELEQFARTFKQRRIKLGFTQGDVGLAMGKLYGNDFSQTTISRFEALNLSFPNMCKLKPLLEKWLNDAE [K53P] | -0.055 ± 0.055
6 | LEELEQFARTFKQRRIKLGFTQGDVGLAMGKLYGNDFSQTTISRFEALGLSFKNMCKLKPLLEKWLNDAE [N49G] | -0.004 ± 0.033
7 | LEWLEQFARTFKQRRIKLGFTQGDVGLAMGKLYGNDFSQTTISRFEALNLSFKNMCKLKPLLEKWLNDAE [E3W] | -0.263 ± 0.027
8 | LETLEQFARTFKQRRIKLGFTQGDVGLAMGKLYGNDFSQTTISRFEALNLSFKNMCKLKPLLEKWLNDAE [E3T] | -0.159 ± 0.061
9 | LEFLEQFARTFKQRRIKLGFTQGDVGLAMGKLYGNDFSQTTISRFEALNLSFKNMCKLKPLLEKWLNDAE [E3F] | -0.208 ± 0.1
10 | LEEAEQFARTFKQRRIKLGFTQGDVGLAMGKLYGNDFSQTTISRFEALNLSFKNMCKLKPLLEKWLNDAE [L4A] | -0.181 ± 0.045
11 | LEELEQFARTGKQRRIKLGFTQGDVGLAMGKLYGNDFSQTTISRFEALNLSFKNMCKLKPLLEKWLNDAE [F11G] | -0.789 ± 0.053
12 | LEELEQFARTLKQRRIKLGFTQGDVGLAMGKLYGNDFSQTTISRFEALNLSFKNMCKLKPLLEKWLNDAE [F11L] | -0.177 ± 0.034
13 | LEELEQFARTSKQRRIKLGFTQGDVGLAMGKLYGNDFSQTTISRFEALNLSFKNMCKLKPLLEKWLNDAE [F11S] | -0.242 ± 0.053
14 | LEELEQFARTWKQRRIKLGFTQGDVGLAMGKLYGNDFSQTTISRFEALNLSFKNMCKLKPLLEKWLNDAE [F11W] | -0.209 ± 0.04
15 | LEELEQFARTFKQRRIKLQFTQGDVGLAMGKLYGNDFSQTTISRFEALNLSFKNMCKLKPLLEKWLNDAE [G19Q] | -0.498 ± 0.037
16 | LEELEQFARTFKQRRIKLPFTQGDVGLAMGKLYGNDFSQTTISRFEALNLSFKNMCKLKPLLEKWLNDAE [G19P] | -0.98 ± 0.17
17 | LEELEEFARTFKQRRIKLGFTQGDVGLAMGKLYGNDFSQTTISRFEALNLSFKNMCKLKPLLEKWLNDAE [Q6E] | -0.045 ± 0.047
18 | LEELETFARTFKQRRIKLGFTQGDVGLAMGKLYGNDFSQTTISRFEALNLSFKNMCKLKPLLEKWLNDAE [Q6T] | 0.003 ± 0.052
19 | LEELEYFARTFKQRRIKLGFTQGDVGLAMGKLYGNDFSQTTISRFEALNLSFKNMCKLKPLLEKWLNDAE [Q6Y] | -0.056 ± 0.081
20 | LEELEQFARTFKQRRIKLGFTQGDVGLAMGKLYGNDFSQTTISRFEALNLSFKCMCKLKPLLEKWLNDAE [N54C] | -0.193 ± 0.09

Row | Variant | abundance fitness
21 | LEELEQFARTFKQRRIKLGFTQGDVGLAMGKLYGNDFSQTTISRFEALNLSFKAMCKLKPLLEKWLNDAE [N54A] | -0.046 ± 0.044
22 | LEELEQFARTFKQRRIKLGFTQGDVGLAMGKLYGNDFSQTTILRFEALNLSFKNMCKLKPLLEKWLNDAE [S43L] | -0.07 ± 0.036
23 | LEELEQFARTFKQRRIKLGFTQGDVGLAMGKLYGNDLSQTTISRFEALNLSFKNMCKLKPLLEKWLNDAE [F37L] | -0.052 ± 0.039
24 | LEELEQFARTFWQRRIKLGFTQGDVGLAMGKLYGNDFSQTTISRFEALNLSFKNMCKLKPLLEKWLNDAE [K12W] | -0.337 ± 0.43
25 | LEELEQFARTFKQRRIKLGFTQGDVGLAMGKLTGNDFSQTTISRFEALNLSFKNMCKLKPLLEKWLNDAE [Y33T] | -0.016 ± 0.056
26 | LEELEQFARTFKQRRIKLGFTQGDVGLAMGKLYGNDFSQTTISRFEALNLSFKNMCKLKPLLEVWLNDAE [K64V] | -0.048 ± 0.054
27 | LEELEQFARTFKQRRIKLGFTQGDVGLAMGKLYGNDFSQTTISRFEALNLSFKNMCKLKPLLEEWLNDAE [K64E] | -0.016 ± 0.064
28 | LEELEQFARTFKQRRIKLGFTQGDVGLAMGKLYGNDFSQTTISRFEALNLSFKNMCKLKPLLEYWLNDAE [K64Y] | -0.24 ± 0.073
29 | LEELEQFARHFKQRRIKLGFTQGDVGLAMGKLYGNDFSQTTISRFEALNLSFKNMCKLKPLLEKWLNDAE [T10H] | -0.013 ± 0.022
30 | LEELEQFARDFKQRRIKLGFTQGDVGLAMGKLYGNDFSQTTISRFEALNLSFKNMCKLKPLLEKWLNDAE [T10D] | 0.022 ± 0.029
31 | LEELEQFARNFKQRRIKLGFTQGDVGLAMGKLYGNDFSQTTISRFEALNLSFKNMCKLKPLLEKWLNDAE [T10N] | 0.012 ± 0.029
32 | LEELEQFARTFKQRRIKLGFTQGDVGTAMGKLYGNDFSQTTISRFEALNLSFKNMCKLKPLLEKWLNDAE [L27T] | -0.092 ± 0.05
33 | LEELEQFARTFKQRRIKLGFTQGDVGLAMGKLYGNDFSQTTISLFEALNLSFKNMCKLKPLLEKWLNDAE [R44L] | -0.025 ± 0.037
34 | LEELEQFARTFKQRRIKLGFTQGDVGLAMGKLYGNDFSQTTISRFEALNLSFKNMCQLKPLLEKWLNDAE [K57Q] | -0.023 ± 0.061
35 | LEELEQFARTFKQRRISLGFTQGDVGLAMGKLYGNDFSQTTISRFEALNLSFKNMCKLKPLLEKWLNDAE [K17S] | -0.009 ± 0.033
36 | LEELEQFARTFKQRRIKLGFTQGDVGLAMGKLYVNDFSQTTISRFEALNLSFKNMCKLKPLLEKWLNDAE [G34V] | -0.168 ± 0.046
37 | LVELEQFARTFKQRRIKLGFTQGDVGLAMGKLYGNDFSQTTISRFEALNLSFKNMCKLKPLLEKWLNDAE [E2V] | -0.062 ± 0.046
38 | LEELEQFARTFKQRRIKLGFTQGDVGLAMGKLYGNDFSQTTISRFEAENLSFKNMCKLKPLLEKWLNDAE [L48E] | 0.014 ± 0.061
39 | LEELEQFARTFKQRRIKLGFTQGDVGLRMGKLYGNDFSQTTISRFEALNLSFKNMCKLKPLLEKWLNDAE [A28R] | -0.027 ± 0.037
